Experimental data taken from patent publication US20250296984A1 (THELPER, published 2025).
Where a chain is given by its changes, count along the chain named. Where two headings read alike, the source gives them in different places. Where no end group is shown, it is not given here. The star is where a group is joined. Biotin = O=C1N[C@H]2[C@H](CS[C@H]2CCCCC(=O)*)N1

B1: US28-4-2F5B11 (antibody, mouse IgG1, kappa, V domains shown)
VH: EVQLQESGAELAKPGASVKMSCKASGYTFSSYWIHWIKQRPGQGLEWIGYINPNTAYTEFNQKFMDKATLTADKSSSTAYMQLTSLTSEDSAVYYCARLRSDRTGFAYWGQGTLVTVSA
VL: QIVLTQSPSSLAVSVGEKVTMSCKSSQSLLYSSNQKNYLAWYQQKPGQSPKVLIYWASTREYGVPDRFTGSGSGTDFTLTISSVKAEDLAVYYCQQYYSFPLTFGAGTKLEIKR
B2: 2F5B11-Myc (antibody, V domains shown)
VH: B1 VH
VL: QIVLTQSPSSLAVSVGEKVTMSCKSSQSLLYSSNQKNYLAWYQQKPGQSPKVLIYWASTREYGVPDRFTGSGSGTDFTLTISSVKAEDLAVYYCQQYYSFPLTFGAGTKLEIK
B3: US28-14-4E4-1E8 (antibody, mouse IgG1, kappa, V domains shown)
VH: EVKLVESGGDLVKPGGSLKLSCAASGFTFSSYAMSWVRQTPEKRLEWVASISSGGRTYYPDSVKGRFTISRDNARNILYLQMSSLRSEDTAIYYCARGGTRHSYGNGFDYWGQGTTLTVSS
VL: QIVLSQSPTIMSASPGEKVTMTCSASSSVSYMHWYQQKSGTSPKRWIYDSSKLASGVPARFSGSGSGTSYSLTISSMEAEDAATYYCQQWTSNPPITFGAGTKLELKR
B4: US28-13-1C10-1G9 (antibody, mouse IgG1, kappa, V domains shown)
VH: EVKLVESGGGLVKPGGSLKLSCAASGFTFSSYAMSWVRQTPEKRLEWVASISSGGSTYYPDSVKGRFTISRDNARNILYLQMSSLRSEDTAMYYCARGGSTMITTGLGFAYWGQGTLVTVSA
VL: B3 VL with S5T, T9A, S50T, T91S, I96L
B5: US28-13-1H3-1A10 (antibody, mouse IgG1, kappa, V domains shown)
VH: EVKLVESGGVLVKPGGSLKFSCAASGFTLSSHALSWVRQTPEKRLEWVASISSRGRTYYPDSVKGRFTVSRDNARNILYLQVSSLRSEDTAMYYCTRGGTHYSYGNGFDFWGQGTTLTVSS
VL: B3 VL with S5T, T9A, A25V, S50T, S76T, T91S, S92N
notes: also called 14-1H3-1A10
B6: US28-13-1C10-1C10 (antibody, mouse IgG1, kappa, V domains shown)
VH: B5 VH with L29F
VL: B3 VL with S5T, T9A, A25V, S50T, S76T, T91S, S92N
B7: US28-4-7B1F3 (antibody, mouse IgG1, kappa, V domains shown)
VH: EVQLQQSGAELAKPGASVKMSCKASGYTFTNYWMHWVKQRPGQGLEWIGYVNPRTGYTEYNQKFKDKATLTADKSSRTAYMQLSSLTSEDSAVYSCARILNGTGFAYWGQGTLVTVSA
VL: DIVLTQSPSSLTVSVGEKFTMSCKSSQSLLYSSNQKNYLAWYQQKPGQSPKLLIYWASTRESGVPDRFTGSGSGTDFTLAISSVKPEDLAIYYCQQYYSFPLTFGAGTKLEIKR
notes: also called mouse 7B1F3; mouse7B1F3
B8: 7B1F3-Myc (antibody, V domains shown)
VH: B7 VH
VL: DIVLTQSPSSLTVSVGEKFTMSCKSSQSLLYSSNQKNYLAWYQQKPGQSPKLLIYWASTRESGVPDRFTGSGSGTDFTLAISSVKPEDLAIYYCQQYYSFPLTFGAGTKLEIK
B9: US28-4-4H3C3 (antibody, mouse IgG1, kappa, V domains shown)
VH: QVQLQQSGAELAKPGASVKMSCKASGYTFTSYWMHWVKQRPGQGLEWIGYINPSTGYAEYNQKFKDKATLTADKSSSTAYMQLSSLTSEDSAVYYCARLRFGSSGFAYWGQGTLVTVSS
VL: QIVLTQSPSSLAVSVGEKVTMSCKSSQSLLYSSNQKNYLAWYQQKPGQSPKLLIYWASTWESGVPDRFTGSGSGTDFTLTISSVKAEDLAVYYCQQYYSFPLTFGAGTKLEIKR
B10: 4H3C3-Myc (antibody, V domains shown)
VH: B9 VH
VL: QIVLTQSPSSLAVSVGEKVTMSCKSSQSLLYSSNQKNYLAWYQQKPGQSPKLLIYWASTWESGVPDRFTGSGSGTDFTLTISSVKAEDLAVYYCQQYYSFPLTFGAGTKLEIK

Key:
[1] = molecular target: T1, US28 of HCMV strain DB fused to a C-terminal 6His tag (human cytomegalovirus (HCMV) strain DB, UniProt P69332 1-354); test: flow cytometry, CHO-US28 against control CHO cells
T1 chain: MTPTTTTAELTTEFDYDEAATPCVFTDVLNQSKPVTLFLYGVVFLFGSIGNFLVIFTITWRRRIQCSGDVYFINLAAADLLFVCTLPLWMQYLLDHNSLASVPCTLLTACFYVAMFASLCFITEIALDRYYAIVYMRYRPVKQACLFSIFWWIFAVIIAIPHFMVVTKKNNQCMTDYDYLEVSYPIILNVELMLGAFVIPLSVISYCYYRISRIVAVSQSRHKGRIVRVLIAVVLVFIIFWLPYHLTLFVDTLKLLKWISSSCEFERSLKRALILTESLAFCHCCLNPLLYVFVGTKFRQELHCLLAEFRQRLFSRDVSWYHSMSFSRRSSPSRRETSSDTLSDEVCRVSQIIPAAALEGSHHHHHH

[2] = molecular target: T1, US28 of HCMV strain DB fused to a …; test: flow cytometry, processed data of FIG. 33
[3] = molecular target: T2, US28 of HCMV strain Merlin fused to a C-terminal 6His tag (human cytomegalovirus (HCMV) strain …, UniProt F5HF62 1-354); test: flow cytometry, processed data of FIG. 33
T2 construct: also called Merlin-encoded US28
T2 sequence: T1 chain with A19D, N170D, S330G

[4] = molecular target: T3, US28 of HCMV strain TB40/E fused to a C-terminal 6His tag (human cytomegalovirus (HCMV) strain …, UniProt P69332 1-354); test: flow cytometry, processed data of FIG. 33
T3 construct: also called TB40/E form of US28
T3 chain: T1 chain with A8T, D15E, E18L, A19G, V24T, I49V, N170D

[5] = molecular target: T4, US28 of HCMV strain VHL/E fused to a C-terminal 6His tag (human cytomegalovirus (HCMV) strain …, UniProt P69332 1-354); test: flow cytometry, processed data of FIG. 33; reference
T4 construct: also called VHL/E-encoded US28
T4 chain: T1 chain with E18D, A19E, F25L, N170D, R267K, V346A

[6] = molecular target: T1, US28 of HCMV strain DB fused to a …; test: flow cytometry, transfected HEK Phoenix cells, 6.76 nM
[7] = molecular target: T2, US28 of HCMV strain Merlin fused to a …; test: as above
[8] = molecular target: T4, US28 of HCMV strain VHL/E fused to a …; test: as above
[9] = molecular target: T3, US28 of HCMV strain TB40/E fused to a …; test: as above
[10] = molecular target: T1, US28 of HCMV strain DB fused to a …; test: flow cytometry, CHO-US28 against control CHO cells
[11] = molecular target: T5, Bio-Peptide-1 (human cytomegalovirus (4N variant, e.g. …)); test: ELISA, Bio-Peptide-1 coated
T5 construct: also called US28 ECD3 genotype 4N peptide
T5 peptide: Biotin-TKKNNQCMTDYDYLEVS

Binder | binding specificity comparative to the specificity displayed by VUN100 [1] | variation in binding relative to US28 as encoded by VHL/E [2] | variation in binding relative to US28 as encoded by VHL/E [3] | variation in binding relative to US28 as encoded by VHL/E [4] | variation in binding relative to US28 as encoded by VHL/E [5] | binding value (Preliminary Binding Data) [6] | binding value (Preliminary Binding Data) [7] | binding value (Preliminary Binding Data) [8] | binding value (Preliminary Binding Data) [9] | binding specificity comparative to the specificity displayed by VUN100 [10] | absorbance [11]
B1 | 4.21 fold | – | – | – | – | – | – | – | – | – | –
B2 | – | -0.04 | 0.01 | -0.92 | 0 | 1.04 | 1.09 | 1.08 | 0.57 | – | –
B3 | – | – | – | – | – | – | – | – | – | 4.6 fold | 2.99
B4 | – | – | – | – | – | – | – | – | – | – | 3.11
B5 | – | – | – | – | – | – | – | – | – | 2.29 fold | 3
B6 | – | – | – | – | – | – | – | – | – | 1.74 fold | 3.11
B7 | 1.67 fold | – | – | – | – | – | – | – | – | – | –
B8 | – | 0.64 | 0.21 | 0.14 | 0 | 0.91 | 0.45 | 0.37 | 0.42 | – | –
B9 | 3.35 fold | – | – | – | – | – | – | – | – | – | –
B10 | – | 0.59 | -0.38 | -0.16 | 0 | 0.37 | 0.12 | 0.16 | 0.14 | – | –
